Where “and” joins values, the source holds several entries; their conditions need not be identical. Equal entries are not always repeated.
Target: the molecule itself
Test: cryo-EM structure; α-LTX at 0.5 mg/ml in 25 mM Tris-HCl pH 8.0, 150 mM NaCl, 0.1 mM CaCl2, 0.2 mM MgCl2; 2D classification and 3D reconstruction of two tetrameric states (prepore, pore)

B1: α-latrotoxin (natural protein)
chain: EGEDLTLEEKAEICSELELQQKYVDIASNIIGDLSSLPIAGKIAGTIAAAAMTATHVASGRLDIEQTLLGCSDLPFDQIKEVLENRFNEIDRKLDSHSAALEEITKLVEKSISVVEKTRKQMNKRFDEVMKSIQDAKVSPIISKINNFARYFDTEKERIRGLKLNDYILKLEEPNGILLHFKESRTPTDDSLQAPLFSIIEEGYAVPKSIDDELAFKVLYALLYGTQTYVSVMFFLLEQYSFLANHYYEKGYLEKYDEYFNSLNNVFLDFKSSLVGTGTSNNEGLLDRVLQVLMTVKNSEFLGLEKNGVDEMLNEKINLFNKIKEEIEGKQKMTLSETPENFAQISFDKDITTPIGDWRDGREVRYAVQYASETLFSKISHWSDPVSVREKACPTLRMPVDQTRRNVLVFRKFDSSKPQLVGEITPYLSNFIDIDRDLYNAASNPDSAVGFKEFTKLNYDGANIRATFDHGRTVFHAAAKSGNDKIMFGLTFLAKSTELNQPDKKGYTPIHVAADSGNAGIVNLLIQRGVSINSKTYHFLQTPLHLAAQRGFVTTFQRLMESPEININERDKDGFTPLHYAIRGGERILEAFLNQISIDVNAKSNTGLTPFHLAIIKNDWPVASTLLGSKKVDINAVDENNITALHYAAILGYLETTKQLINLKEINANVVSSPGLLSALHYAILYKHDDVASFLMRSSNVNVNLKALGGITPLHLAVIQGRKQILSLMFDIGVNIEQKTDEKYTPLHLAAMSKYPELIQILLDQGSNFEAKTNSGATPLHLATFKGKSQAALILLNNEVNWRDTDENGQMPIHGAAMTGLLDVAQAIISIDATVVDIEDKNSDTPLNLAAQNSHIDVIKYFIDQGADINTRNKKGLAPLLAFSKKGNLDMVKYLFDKNANVYIADNDGMNFFYYAVQNGHLNIVKYAMSEKDKFEWSNTDNNRRDECPNEECAISHFAVCDAVQFDRIEIVKYFVGTLGNFAICGPLHQAARYGHLDIVKYLVEEEFLSVDGSKTDTPLCYASENGHFTVVQYLVSNGAKVNHDCGNGMTAIDKAITKNHLQVVQFLAANGVDFRRKNSRGTTPFLTAVAENALHIAEYLIREKRQDININEQNVDKDTALHLAVYYKNLQMIKLLIKYGIDVTIRNAYDKTALDIAIDAKFSNIVEYLKTKSGKFRR
notes: Tetramer in the presence of Ca2+/Mg2+; monomers, dimers and trimers stand in the same sample; Disulfide bonds seen: C34-C91 (CC1), C968-C973 (CC2), and CC3 and CC4 in AR15-19; the model ends at G1195; also called α-LTX
- stoichiometry N: 4 and 3 and 2
